Reference: the Immune Epitope Database (IEDB)

Legend:
HLA-B*18:01 [1] = test: IEDB peptide-MHC binding, purified MHC/competitive/fluorescence; filed as Kd, often an IC50 or EC50 that approximates it; ≥ and ≤ were set here for values at or beyond the usual limits of such assays; settings: source organism: Mycobacterium tuberculosis variant bovis BCG str. Pasteur 1173P2
HLA-A*02:19 = test: as above; settings: source organism: Mycobacterium tuberculosis variant bovis BCG str. Pasteur 1173P2
HLA-B*15:17 = test: as above; settings: source organism: Mycobacterium tuberculosis variant bovis BCG str. Pasteur 1173P2
HLA-B*57:01 = test: as above; settings: source organism: Mycobacterium tuberculosis variant bovis BCG str. Pasteur 1173P2
HLA-B*39:01 = test: as above; settings: source organism: Mycobacterium tuberculosis variant bovis BCG str. Pasteur 1173P2
HLA-A*03:01 [2] = test: as above; settings: source organism: Mycobacterium tuberculosis variant bovis BCG str. Pasteur 1173P2
HLA-A*68:02 = test: as above; settings: source organism: Mycobacterium tuberculosis variant bovis BCG str. Pasteur 1173P2
HLA-B*46:01 [3] = test: as above; settings: source organism: Mycobacterium tuberculosis variant bovis BCG str. Pasteur 1173P2
HLA-A*69:01 [4] = test: as above; settings: source organism: Mycobacterium tuberculosis variant bovis BCG str. Pasteur 1173P2
HLA-A*24:03 = test: as above; settings: source organism: Mycobacterium tuberculosis variant bovis BCG str. Pasteur 1173P2
HLA-B*15:01 [5] = test: as above; settings: source organism: Mycobacterium tuberculosis variant bovis BCG str. Pasteur 1173P2
HLA-B*51:01 = test: as above; settings: source organism: Mycobacterium tuberculosis variant bovis BCG str. Pasteur 1173P2
HLA-A*26:01 [6] = test: as above; settings: source organism: Mycobacterium tuberculosis variant bovis BCG str. Pasteur 1173P2
HLA-B*27:03 = test: as above; settings: source organism: Mycobacterium tuberculosis variant bovis BCG str. Pasteur 1173P2
HLA-A*29:02 = test: as above; settings: source organism: Mycobacterium tuberculosis variant bovis BCG str. Pasteur 1173P2
HLA-B*58:01 [7] = test: IEDB peptide-MHC binding, purified MHC/competitive/radioactivity; filed as Kd, often an IC50 or EC50 that approximates it; ≥ and ≤ were set here for values at or beyond the usual limits of such assays; settings: source organism: Dengue virus 3 Martinique/1243/1999
HLA-B*18:01 [8] = test: IEDB peptide-MHC binding, purified MHC/direct/fluorescence; filed as Kd, often an IC50 or EC50 that approximates it; ≥ and ≤ were set here for values at or beyond the usual limits of such assays; settings: source organism: Influenza A virus (A/chicken/Vietnam/393/2005(H5N1))
HLA-A*31:01 = test: as above
HLA-B*44:02 = test: as above
HLA-A*01:01 = test: as above
HLA-B*08:02 = test: as above; settings: source organism: Influenza A virus(A/swine/Shandong/fNY/2003(H9N2))
HLA-A*03:01 [9] = test: as above
HLA-B*46:01 [10] = test: as above; settings: source organism: Influenza A virus (A/chicken/Vietnam/393/2005(H5N1))
HLA-A*69:01 [11] = test: as above
HLA-B*27:05 = test: as above
HLA-B*07:02 = test: as above
HLA-B*08:01 = test: as above
HLA-B*15:01 [12] = test: as above
HLA-A*11:01 = test: as above
HLA-A*26:01 [13] = test: as above
HLA-B*40:01 = test: as above
HLA-B*58:01 [14] = test: as above
HLA-A*24:02 = test: as above; settings: source organism: Influenza A virus (A/chicken/Vietnam/393/2005(H5N1))
HLA-A*30:01 = test: as above; settings: source organism: Yersinia pestis
HLA-A*02:01 = test: as above; settings: source organism: Yersinia pestis
[15] = source organism: Influenza A virus (A/chicken/Vietnam/393/2005(H5N1))
[16] = source organism: Yersinia pestis

For RLAPEPVYT, the Kd (HLA-B*18:01 [1]) was ≥ 20 µM, the Kd (HLA-A*02:19) was 0.0932 µM and the Kd (HLA-B*15:17) was ≥ 20 µM. The Kd (HLA-B*57:01) was ≥ 20 µM, the Kd (HLA-B*39:01) was ≥ 20 µM and the Kd (HLA-A*03:01 [2]) was ≥ 20 µM. The Kd (HLA-A*68:02) was ≥ 20 µM, the Kd (HLA-B*46:01 [3]) was ≥ 20 µM and the Kd (HLA-A*69:01 [4]) was ≥ 20 µM. The Kd (HLA-A*24:03) was ≥ 20 µM, the Kd (HLA-B*15:01 [5]) was ≥ 20 µM and the Kd (HLA-B*51:01) was ≥ 20 µM. For the same sequence, the Kd (HLA-A*26:01 [6]) was ≥ 20 µM, the Kd (HLA-B*27:03) was ≥ 20 µM and the Kd (HLA-A*29:02) was 3 µM.

With TAAVLLLITH the Kd (HLA-B*58:01 [7]) was 0.751 µM.

VLTGNLQTL was tested, and the Kd (HLA-B*18:01 [8]) was ≥ 20 µM, the Kd (HLA-A*31:01; [15]) was ≥ 20 µM and the Kd (HLA-B*44:02; [15]) was ≥ 20 µM. The Kd (HLA-A*01:01; [15]) was ≥ 20 µM, the Kd (HLA-B*08:02) was ≥ 20 µM and the Kd (HLA-A*03:01 [9]; [15]) was ≥ 20 µM. The Kd (HLA-B*46:01 [10]) was ≥ 20 µM, the Kd (HLA-A*69:01 [11]; [15]) was ≥ 20 µM and the Kd (HLA-B*27:05; [15]) was ≥ 20 µM. The Kd (HLA-B*07:02; [15]) was ≥ 20 µM, the Kd (HLA-B*08:01; [15]) was ≥ 20 µM and the Kd (HLA-B*15:01 [12]; [15]) was ≥ 20 µM. For the same sequence, the Kd (HLA-A*11:01; [15]) was ≥ 20 µM, the Kd (HLA-A*26:01 [13]; source organism: Influenza A virus(A/swine/Shandong/fNY/2003(H9N2))) was ≥ 20 µM and the Kd (HLA-B*40:01; [15]) was ≥ 20 µM. For the same sequence, the Kd (HLA-B*58:01 [14]; [15]) was ≥ 20 µM and the Kd (HLA-A*24:02) was ≥ 20 µM.

For YGLGSTPLY, the Kd (HLA-A*31:01; [16]) was ≥ 20 µM, the Kd (HLA-B*44:02; [16]) was ≥ 20 µM and the Kd (HLA-A*01:01; [16]) was 14.1 µM. The Kd (HLA-A*03:01 [9]; [16]) was ≥ 20 µM, the Kd (HLA-A*30:01) was 3.59 µM and the Kd (HLA-A*69:01 [11]; [16]) was ≥ 20 µM. The Kd (HLA-B*27:05; [16]) was ≥ 20 µM, the Kd (HLA-B*07:02; [16]) was ≥ 20 µM and the Kd (HLA-B*08:01; [16]) was ≥ 20 µM. The Kd (HLA-B*15:01 [12]; [16]) was 0.332 µM, the Kd (HLA-A*11:01; [16]) was ≥ 20 µM and the Kd (HLA-A*26:01 [13]; [16]) was 5.87 µM. The Kd (HLA-B*40:01; [16]) was ≥ 20 µM, the Kd (HLA-A*02:01) was ≥ 20 µM and the Kd (HLA-B*58:01 [14]; [16]) was 10.4 µM.
